Ends that are not written are not given here. * marks the point of attachment. Biotin = O=C1N[C@H]2[C@H](CS[C@H]2CCCCC(=O)*)N1
Assays:
Assay in all cases: peptide or protein array; E. coli proteome chip: purified His-tagged proteins printed in duplicate on Fullmoon slides, blocked with 1% BSA; 10 nM N-terminal biotinylated LfcinB with 1% BSA, room temperature, 1 h; detected with DyLight 649-labeled streptavidin, ratio to DyLight 549-labeled anti-His antibody; ProCAT normalisation, local cut-off; triplicate chips
Details in all cases: both partners purified
GlyQ = target: T1, GlyQ (E. coli K-12, UniProt P00960 1-303)
T1 construct: GlyQ, E. coli K-12
T1 sequence (looked up): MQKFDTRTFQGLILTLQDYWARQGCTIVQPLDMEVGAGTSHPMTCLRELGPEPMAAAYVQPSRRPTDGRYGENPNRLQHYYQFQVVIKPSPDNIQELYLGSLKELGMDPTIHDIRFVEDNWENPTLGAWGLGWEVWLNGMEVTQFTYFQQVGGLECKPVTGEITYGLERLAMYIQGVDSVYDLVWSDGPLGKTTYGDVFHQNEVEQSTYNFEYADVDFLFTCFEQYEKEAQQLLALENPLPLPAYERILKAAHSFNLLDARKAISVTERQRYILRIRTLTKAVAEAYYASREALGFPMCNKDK

YpdH = target: T2, YpdH (E. coli K-12, UniProt P69808 1-108)
T2 construct: YpdH, E. coli K-12
T2 sequence (looked up): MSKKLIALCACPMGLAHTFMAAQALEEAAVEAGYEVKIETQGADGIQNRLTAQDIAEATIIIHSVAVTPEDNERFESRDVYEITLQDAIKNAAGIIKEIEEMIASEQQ

YcaO = target: T3, YcaO (E. coli K-12, UniProt P75838 1-586)
T3 construct: YcaO, E. coli K-12

YegJ = target: T4, YegJ (E. coli K-12, UniProt P76394 1-153)
T4 construct: YegJ, E. coli K-12
T4 sequence (looked up): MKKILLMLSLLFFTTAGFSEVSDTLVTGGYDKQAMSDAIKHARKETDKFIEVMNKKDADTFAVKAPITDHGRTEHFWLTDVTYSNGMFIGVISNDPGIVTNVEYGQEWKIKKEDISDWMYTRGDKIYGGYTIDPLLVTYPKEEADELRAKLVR

YjdK = target: T5, YjdK (E. coli K-12, UniProt P0AF61 1-98)
T5 construct: YjdK, E. coli K-12
T5 sequence (looked up): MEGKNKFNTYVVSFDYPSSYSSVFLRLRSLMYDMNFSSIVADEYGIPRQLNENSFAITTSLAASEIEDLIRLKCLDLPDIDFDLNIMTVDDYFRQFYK

YjbM = target: T6, YjbM (E. coli K-12, UniProt P32694 1-235)
T6 construct: YjbM, E. coli K-12
T6 sequence (looked up): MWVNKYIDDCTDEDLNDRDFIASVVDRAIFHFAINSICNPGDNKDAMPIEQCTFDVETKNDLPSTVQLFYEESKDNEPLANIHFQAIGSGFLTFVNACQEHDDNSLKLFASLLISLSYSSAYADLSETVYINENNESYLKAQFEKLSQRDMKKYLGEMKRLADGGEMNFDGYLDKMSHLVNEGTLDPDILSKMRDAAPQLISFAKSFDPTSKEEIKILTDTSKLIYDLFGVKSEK

HyaF = target: T7, HyaF (E. coli K-12, UniProt P19932 1-285)
T7 construct: HyaF, E. coli K-12
T7 sequence (looked up): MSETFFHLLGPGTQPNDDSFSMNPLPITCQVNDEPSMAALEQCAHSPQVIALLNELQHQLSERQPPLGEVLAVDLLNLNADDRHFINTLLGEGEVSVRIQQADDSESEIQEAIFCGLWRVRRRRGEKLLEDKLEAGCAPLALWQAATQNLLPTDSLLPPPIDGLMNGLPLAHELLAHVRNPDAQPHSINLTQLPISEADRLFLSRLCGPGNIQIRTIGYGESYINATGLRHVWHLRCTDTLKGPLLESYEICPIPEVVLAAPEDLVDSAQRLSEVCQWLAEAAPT

[1] = target: T8, ribonucleoside-diphosphate reductase 2, β subunit (E. coli K-12, UniProt P37146 1-319)
T8 construct: NrdF, ribonucleoside-diphosphate reductase 2, β subunit, E. coli K-12; no measurement of the oligomer here; also called NrdF

Measured: binding result

T3 sequence (P75838 whole entry): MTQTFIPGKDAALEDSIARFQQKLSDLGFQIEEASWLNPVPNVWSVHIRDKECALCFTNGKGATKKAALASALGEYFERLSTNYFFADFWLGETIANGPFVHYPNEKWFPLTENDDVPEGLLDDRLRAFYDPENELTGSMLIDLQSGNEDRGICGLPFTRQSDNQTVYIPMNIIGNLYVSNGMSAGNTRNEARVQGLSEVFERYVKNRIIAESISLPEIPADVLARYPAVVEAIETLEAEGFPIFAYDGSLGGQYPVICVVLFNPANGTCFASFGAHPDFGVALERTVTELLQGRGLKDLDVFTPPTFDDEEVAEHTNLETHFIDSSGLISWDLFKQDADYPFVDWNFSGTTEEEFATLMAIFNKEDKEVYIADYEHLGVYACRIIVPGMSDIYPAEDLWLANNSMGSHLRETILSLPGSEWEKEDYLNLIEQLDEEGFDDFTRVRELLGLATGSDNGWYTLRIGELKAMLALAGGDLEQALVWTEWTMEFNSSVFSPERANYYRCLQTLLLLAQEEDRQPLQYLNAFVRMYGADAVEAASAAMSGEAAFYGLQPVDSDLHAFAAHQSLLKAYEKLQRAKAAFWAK
T8 sequence (P37146 whole entry): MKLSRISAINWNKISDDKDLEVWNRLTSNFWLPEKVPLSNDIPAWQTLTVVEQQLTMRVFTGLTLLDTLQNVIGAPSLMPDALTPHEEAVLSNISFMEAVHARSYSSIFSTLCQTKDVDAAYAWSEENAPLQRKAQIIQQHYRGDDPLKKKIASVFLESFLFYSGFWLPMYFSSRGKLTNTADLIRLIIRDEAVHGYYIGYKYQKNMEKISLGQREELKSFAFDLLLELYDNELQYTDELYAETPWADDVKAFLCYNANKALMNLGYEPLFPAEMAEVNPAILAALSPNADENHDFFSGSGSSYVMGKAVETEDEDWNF

B1: N-terminal biotinylated Lactoferricin B (peptide, UniProt P24627 36-60, looked up)
peptide: Biotin-FKCRRWQWRMKKLGAPSITCVRRAF
modifications: ends and bridges not checked
notes: lactoferricin B (LfcinB), cationic antimicrobial peptide of 25 amino acids; also called biotinylated LfcinB; biotin-labeled LfcinB; source: bought: Kelowna Inc
binds: all assays above

Source: publication PMC3229523, “Identification of Lactoferricin B Intracellular Targets Using an Escherichia coli Proteome Chip” (PLoS ONE, 2011)
